Experimental data reported in PMC11432006.

Biological target: lysozyme from egg, P00698
Assay: SPR
Settings: chain shown with the change; lysozyme immobilized, VNAR flowed over; 1:1 fitting model

lysozyme from egg, P00698, sequence (P00698 19-147): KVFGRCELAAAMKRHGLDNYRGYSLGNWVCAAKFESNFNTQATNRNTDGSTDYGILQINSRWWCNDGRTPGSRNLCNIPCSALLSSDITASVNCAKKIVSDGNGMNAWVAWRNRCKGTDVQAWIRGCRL

Binder | ratio to parent
anti-lysozyme VNAR (lyso-VNAR) C30A; C112.1S (protein) ARVDQTPQTITKETGESLTINCVLRDSNAALSSTYWYRKKSGSTNEESISKGGRYVETVNSGSKSFSLRINDLTVEDSGTYRCKPESRYGSYDAESAALNDQYGGGTVVTVN | 31.5
anti-lysozyme VNAR (lyso-VNAR) C30G; C112.1L (protein) ARVDQTPQTITKETGESLTINCVLRDSNGALSSTYWYRKKSGSTNEESISKGGRYVETVNSGSKSFSLRINDLTVEDSGTYRCKPESRYGSYDAELAALNDQYGGGTVVTVN | 12.7
anti-lysozyme VNAR (lyso-VNAR) C30L; C112.1A (protein) ARVDQTPQTITKETGESLTINCVLRDSNLALSSTYWYRKKSGSTNEESISKGGRYVETVNSGSKSFSLRINDLTVEDSGTYRCKPESRYGSYDAEAAALNDQYGGGTVVTVN | 19.1
anti-lysozyme VNAR (lyso-VNAR) C30L; C112.1L (protein) ARVDQTPQTITKETGESLTINCVLRDSNLALSSTYWYRKKSGSTNEESISKGGRYVETVNSGSKSFSLRINDLTVEDSGTYRCKPESRYGSYDAELAALNDQYGGGTVVTVN | 100
anti-lysozyme VNAR (lyso-VNAR) C30G; C112.1A (protein) ARVDQTPQTITKETGESLTINCVLRDSNGALSSTYWYRKKSGSTNEESISKGGRYVETVNSGSKSFSLRINDLTVEDSGTYRCKPESRYGSYDAEAAALNDQYGGGTVVTVN | 24.1
anti-lysozyme VNAR (lyso-VNAR) C30P; C112.1T (protein) ARVDQTPQTITKETGESLTINCVLRDSNPALSSTYWYRKKSGSTNEESISKGGRYVETVNSGSKSFSLRINDLTVEDSGTYRCKPESRYGSYDAETAALNDQYGGGTVVTVN | 211
anti-lysozyme VNAR (lyso-VNAR) C30W; C112.1V (protein) ARVDQTPQTITKETGESLTINCVLRDSNWALSSTYWYRKKSGSTNEESISKGGRYVETVNSGSKSFSLRINDLTVEDSGTYRCKPESRYGSYDAEVAALNDQYGGGTVVTVN | 54.3
